Source: IntAct's records for PubMed 31515488

B1: L-fucose dehydrogenase (Homo sapiens), Q9BPX1 (parent)
chain: MATGTRYAGKVVVVTGGGRGIGAGIVRAFVNSGARVVICDKDESGGRALEQELPGAVFILCDVTQEDDVKTLVSETIRRFGRLDCVVNNAGHHPPPQRPEETSAQGFRQLLELNLLGTYTLTKLALPYLRKSQGNVINISSLVGAIGQAQAVPYVATKGAVTAMTKALALDESPYGVRVNCISPGNIWTPLWEELAALMPDPRATIREGMLAQPLGRMGQPAEVGAAAVFLASEANFCTGIELLVTGGAELGYGCKASRSTPVDAPDIPS
partner: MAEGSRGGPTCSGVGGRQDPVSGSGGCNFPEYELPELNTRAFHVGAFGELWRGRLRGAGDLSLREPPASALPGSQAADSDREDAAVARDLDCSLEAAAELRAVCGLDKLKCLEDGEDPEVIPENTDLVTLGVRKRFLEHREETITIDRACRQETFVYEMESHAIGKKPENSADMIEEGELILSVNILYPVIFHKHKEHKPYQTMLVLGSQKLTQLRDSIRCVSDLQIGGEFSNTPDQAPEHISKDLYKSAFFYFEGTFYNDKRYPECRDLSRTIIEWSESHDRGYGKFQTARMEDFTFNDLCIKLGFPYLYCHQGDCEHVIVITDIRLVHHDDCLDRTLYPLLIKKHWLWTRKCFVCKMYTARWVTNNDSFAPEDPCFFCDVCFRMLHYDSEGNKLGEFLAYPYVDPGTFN
B2: Protein BANP (Homo sapiens), Q8N9N5-2 (parent)
chain: MMSEHDLADVVQIAVEDLSPDHPVVLENHVVTDEDEPALKRQRLEINCQDPSIKSFLYSINQTICLRLDSIEAKLQALEATCKSLEEKLDLVTNKQHSPIQVPMVAGSPLGATQTCNKVRCAVPGRRQNTIVVKVPGQEDSHHEDGESGSEASDSVSSCGQAGSQSIGSNVTLITLNSEEDYPNGTWLGDENNPEMRVRCAIIPSDMLHISTNCRTAEKMALTLLDYLFHREVQAVSNLSGQGKHGKKQLDPLTIYGIRCHLFYKFGITESDWYRIKQSIDSKCRTAWRRKQRGQSLAVKSFSRRTPNSSSYCPSEPMMSTPPPASELPQPQPQPQALHYALANAQQVQIHQIGEDGQVQVIPQGHLHIAQVPQGEQVQITQDSEGNLQIHHVGQDGQVLQGAQLIAVASSDPAAAGVDGSPLQGSDIQVQYVQLAPVSDHTAGAQTAEALQPTLQPEMQLEHGAIQIQ
partner: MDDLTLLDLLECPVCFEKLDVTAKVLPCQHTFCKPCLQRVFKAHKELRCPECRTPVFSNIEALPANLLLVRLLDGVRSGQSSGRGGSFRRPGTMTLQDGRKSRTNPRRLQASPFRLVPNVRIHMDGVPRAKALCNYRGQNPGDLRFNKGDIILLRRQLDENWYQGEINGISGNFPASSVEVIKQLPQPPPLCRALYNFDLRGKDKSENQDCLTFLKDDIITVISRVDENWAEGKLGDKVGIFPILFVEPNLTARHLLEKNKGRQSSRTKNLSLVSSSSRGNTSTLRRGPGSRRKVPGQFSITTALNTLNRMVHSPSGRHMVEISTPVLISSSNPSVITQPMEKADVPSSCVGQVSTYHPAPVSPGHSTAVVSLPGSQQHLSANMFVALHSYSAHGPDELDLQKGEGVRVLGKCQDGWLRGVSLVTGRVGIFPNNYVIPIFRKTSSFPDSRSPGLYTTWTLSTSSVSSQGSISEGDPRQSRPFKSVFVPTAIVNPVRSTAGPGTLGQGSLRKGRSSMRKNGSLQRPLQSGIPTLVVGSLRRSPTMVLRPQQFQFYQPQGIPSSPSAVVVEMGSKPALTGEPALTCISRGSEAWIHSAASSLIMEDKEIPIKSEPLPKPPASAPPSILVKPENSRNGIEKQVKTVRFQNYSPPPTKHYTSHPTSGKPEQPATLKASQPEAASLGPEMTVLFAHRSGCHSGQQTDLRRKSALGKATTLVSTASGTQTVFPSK
B3: Vesicle transport through interaction with t-SNAREs homolog 1B (Homo sapiens), Q9UEU0 (parent)
chain: MASSAASSEHFEKLHEIFRGLHEDLQGVPERLLGTAGTEEKKKLIRDFDEKQQEANETLAEMEEELRYAPLSFRNPMMSKLRNYRKDLAKLHREVRSTPLTATPGGRGDMKYGIYAVENEHMNRLQSQRAMLLQGTESLNRATQSIERSHRIATETDQIGSEIIEELGEQRDQLERTKSRLVNTSENLSKSRKILRSMSRKVTTNKLLLSIIILLELAILGGLVYYKFFRSH
partner: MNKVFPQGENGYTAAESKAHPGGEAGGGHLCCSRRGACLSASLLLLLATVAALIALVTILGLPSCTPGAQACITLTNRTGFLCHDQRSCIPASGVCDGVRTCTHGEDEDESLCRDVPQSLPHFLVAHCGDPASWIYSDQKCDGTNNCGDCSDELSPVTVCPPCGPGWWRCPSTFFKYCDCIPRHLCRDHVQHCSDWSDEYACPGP
B4: Filamin-binding LIM protein 1 (Homo sapiens), Q8WUP2 (parent)
chain: MASKPEKRVASSVFITLAPPRRDVAVAEEVRQAVCEARRGRPWEAPAPMKTPEAGLAGRPSPWTTPGRAAATVPAAPMQLFNGGCPPPPPVLDGEDVLPDLDLLPPPPPPPPVLLPSEEEAPAPMGASLIADLEQLHLSPPPPPPQAPAEGPSVQPGPLRPMEEELPPPPAEPVEKGASTDICAFCHKTVSPRELAVEAMKRQYHAQCFTCRTCRRQLAGQSFYQKDGRPLCEPCYQDTLERCGKCGEVVRDHIIRALGQAFHPSCFTCVTCARCIGDESFALGSQNEVYCLDDFYRKFAPVCSICENPIIPRDGKDAFKIECMGRNFHENCYRCEDCRILLSVEPTDQGCYPLNNHLFCKPCHVKRSAAGCC
partner: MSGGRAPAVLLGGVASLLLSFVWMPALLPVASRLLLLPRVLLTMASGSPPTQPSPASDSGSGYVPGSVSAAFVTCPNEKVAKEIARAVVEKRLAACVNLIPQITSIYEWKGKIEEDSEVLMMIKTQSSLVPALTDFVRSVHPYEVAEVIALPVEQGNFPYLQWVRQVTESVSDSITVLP
B5: Defensin-6 (Homo sapiens), Q01524 (parent)
chain: MRTLTILTAVLLVALQAKAEPLQAEDDPLQAKAYEADAQEQRGANDQDFAVSFAEDASSSLRALGSTRAFTCHCRRSCYSTEYSYGTCTVMGINHRFCCL
B6: Zinc finger protein Aiolos (Homo sapiens), Q9UKT9 (parent)
chain: MEDIQTNAELKSTQEQSVPAESAAVLNDYSLTKSHEMENVDSGEGPANEDEDIGDDSMKVKDEYSERDENVLKSEPMGNAEEPEIPYSYSREYNEYENIKLERHVVSFDSSRPTSGKMNCDVCGLSCISFNVLMVHKRSHTGERPFQCNQCGASFTQKGNLLRHIKLHTGEKPFKCHLCNYACQRRDALTGHLRTHSVEKPYKCEFCGRSYKQRSSLEEHKERCRTFLQSTDPGDTASAEARHIKAEMGSERALVLDRLASNVAKRKSSMPQKFIGEKRHCFDVNYNSSYMYEKESELIQTRMMDQAINNAISYLGAEALRPLVQTPPAPTSEMVPVISSMYPIALTRAEMSNGAPQELEKKSIHLPEKSVPSERGLSPNNSGHDSTDTDSNHEERQNHIYQQNHMVLSRARNGMPLLKEVPRSYELLKPPPICPRDSVKVINKEGEVMDVYRCDHCRVLFLDYVMFTIHMGCHGFRDPFECNMCGYRSHDRYEFSSHIARGEHRALLK
partner: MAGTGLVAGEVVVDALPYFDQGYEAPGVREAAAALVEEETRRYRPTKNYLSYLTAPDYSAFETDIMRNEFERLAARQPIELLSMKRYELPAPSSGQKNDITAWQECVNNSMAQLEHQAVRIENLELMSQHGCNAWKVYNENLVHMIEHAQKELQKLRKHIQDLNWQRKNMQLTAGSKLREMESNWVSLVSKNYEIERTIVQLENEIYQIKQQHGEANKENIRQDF

Variants of: B1
Conditions: with snpc3_human SNAPC3, Q92966

Q: Which “effect of a mutation on the interaction” value does the source give for N31D here?
A: Its value is “with no effect”.

Q: For R130W, which “effect of a mutation on the interaction” value is on record?
A: The value was “disrupting interaction strength”.

Q: Which “effect of a mutation on the interaction” value does the source give for G16W here?
A: The value was “disrupting interaction strength”.

Variants of: B2
Conditions: with sh3r2_human SH3RF2, Q8TEC5

Q: For A162V, which “effect of a mutation on the interaction” value is on record?
A: Its value is “with no effect”.

Variants of: B3
Conditions: with lrad1_human LDLRAD1, Q5T700

Q: R124Q was tested. Which “effect of a mutation on the interaction” value did it give?
A: The value was “with no effect”.

Q: With R176H as the variant, how does the “effect of a mutation on the interaction” value read?
A: The value was “with no effect”.

Variants of: B4
Conditions: with cuta_human CUTA

Q: For Y204C, which “effect of a mutation on the interaction” value is on record?
A: Its value is “disrupting interaction strength”.

Variants of: B5
Conditions: with ubql1_human UBQLN1, Q9UMX0
Sequence of ubql1_human UBQLN1, Q9UMX0 (Q9UMX0 whole entry): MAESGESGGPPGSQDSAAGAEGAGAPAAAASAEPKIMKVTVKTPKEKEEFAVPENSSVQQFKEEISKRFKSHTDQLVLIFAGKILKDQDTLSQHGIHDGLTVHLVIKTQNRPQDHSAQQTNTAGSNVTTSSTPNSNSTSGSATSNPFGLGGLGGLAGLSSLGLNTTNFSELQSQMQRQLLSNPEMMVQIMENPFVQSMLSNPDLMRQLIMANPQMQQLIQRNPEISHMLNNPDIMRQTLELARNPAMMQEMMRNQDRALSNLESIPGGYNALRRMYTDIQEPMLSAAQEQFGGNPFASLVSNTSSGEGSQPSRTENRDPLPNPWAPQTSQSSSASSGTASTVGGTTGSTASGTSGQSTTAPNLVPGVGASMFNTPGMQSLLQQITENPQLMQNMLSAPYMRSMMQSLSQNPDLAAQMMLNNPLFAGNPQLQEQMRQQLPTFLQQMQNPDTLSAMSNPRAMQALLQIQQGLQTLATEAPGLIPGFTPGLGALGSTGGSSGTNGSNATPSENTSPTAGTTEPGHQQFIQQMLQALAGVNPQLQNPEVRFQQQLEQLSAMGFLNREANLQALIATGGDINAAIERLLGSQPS

Q: How did the “effect of a mutation on the interaction” value turn out when D46E was run?
A: Its value is “with no effect”.

Q: For E35D, which “effect of a mutation on the interaction” value is on record?
A: Its value is “with no effect”.

Variants of: B6
Conditions: with spf27_human BCAS2, O75934

Q: Which “effect of a mutation on the interaction” value does the source give for A24V here?
A: The value was “with no effect”.

Q: Which “effect of a mutation on the interaction” value does the source give for N119D here?
A: The value was “with no effect”.
